{"source": "patent US11124574B2", "about": "“Specific photoimmuno-theranostics for detection and elimination of skin cancer cells” (University of Cape Town, priority 2015, dated 2021)", "molecules": {"B1": {"name": "scFv-425-SNAP-647: scFv-425-SNAP-tag fusion protein conjugated with BG-Alexa-647 dye, used for flow cytometry and confocal microscopy (conjugate)", "scFv": "MAQVQLQQSGAELVKPGASVKLSCKASGYTFTSHWMHWVKQRAGQGLEWIGEFNPSNGRTNYNEKFKSKATLTVDKSSSTAYMQLSSLTSEDSAVYYCASRDYDYDGRYFDYWGQGTTVTVSSGGGGSGGGGSGGGGSDIELTQSPAIMSASPGEKVTMTCSASSSVTYMYWYQQKPGSSPRLLIYDTSNLASGVPVRFSGSGSGTSYSLTISRMEAEDAATYYCQQWSSHIFTFGSGTELEIKRMDKDCEMKRTTLDSPLGKLELSGCEQGLHEIKLLGKGTSAADAVEVPAPAAVLGGPEPLMQATAWLNAYFHQPEAIEEFPVPALHHPVFQQESFTRQVLWKLLKVVKFGEVISYQQLAALAGNPAATAAVKTALSGNPVPILIPCHRVVSSSGAVGGYEGGLAVKEWLLAHEGHRLGKP", "modifications": "left off: small tags and cut ends"}, "B2": {"name": "scFv-425-SNAP-IR700: IR700 photosensitizer (via BG-PEG24 linker) conjugated to anti-EGFR single-chain variable fragment scFv-425 fused to SNAP-tag (conjugate)", "scFv": "B1 scFv", "modifications": "left off: small tags and cut ends", "notes": "IR700 photosensitizer (via BG-PEG24 linker) conjugated to anti-EGFR single-chain variable fragment scFv-425 fused to SNAP-tag"}}, "key": {"[1]": {"test_system": "A431, IGR-1, IGR-39 and A2058", "assay": "XTT cell viability assay, controls on all cell lines", "format": "cell-based, human", "details": "for cell viability (XTT), controls: all cell lines, treated with NIR-light", "method": "(§1) The human skin epidermoid carcinoma cell line A431 (ATCC: CRL-259), human embryonic kidney (HEK-293T) cell line (ATCC: CRL-11268) and the human melanoma cell line A2058 (ATCC: CRL-11147) were cultured in RPMI-1640 medium. The human melanoma cell line IGR-39 (DSMZ: ACC 239) and IGR-1 (DSMZ: ACC-236) were cultured in DEME medium. All media were supplemented with 2 mM L-glutamine, 10% (v/v) fetal bovine serum (FBS) and 100 U/mL penicillin-streptomycin; the cells were incubated at 37° C. in a 5% CO2 atm. All media and additives were purchased from Life Technologies, Darmstadt, Germany.\n(§2) In addition to the in vitro imaging specificity, the phototoxic activity of scFv-SNAP-IR700 and free IR700 were also investigated using cell proliferation and cell apoptosis assays as described previously (9). Briefly, 2×10^4 cells were seeded in 96-well plates and incubated overnight at 37° C. The cells were treated with different concentrations (0, 12.5, 25, 50, 100, 200 and 400) nM of scFv-425-SNAP, IR700 or equivalent concentration of scFv-SNAP-425-IR700 for 3 h at 37° C. in the dark. Toxic control cultures were incubated with 500 μg/mL zeocin instead of the photosensitizer.\nBefore light irradiation, cells were washed three times with PBS and fresh phenol red free culture media were added to the cells. Light treatment was performed with a Hydrosun® Typ 750 radiator with a water-containing cuvette and an orange filter OG590, with 140 mW/cm^2, dose: 25 J/cm^2a VIS, 76 J/cm^2 wIRA, exposure time: 15 min, and a spectrum in the range of 580-1400 nm (Hydrosun Medizintechnik GmbH, Mülhelm, Germany). […]\n(§3) Cell viability was measured using the cell proliferation kit II (XTT®) (Roche, Mannheim Germany) according to the manufacturer's instructions. […] Cell viability was determined colorimetrically by monitoring the reduction of XTT® to formazan at 450 nm absorbance wavelength and 630 nm reference wavelength using the ELx808 absorbance micro-plate reader (BioTek Instruments GmbH, Bad Friedrichshall, Germany)."}, "[2]": {"test_system": "A431, IGR-1, IGR-39 and A2058", "assay": "Apo-ONE Caspase-3/7 apoptosis assay, controls", "format": "cell-based, human", "details": "photosensitizer or fusion protein alone", "method": "as §2\n(§4) Before light irradiation, cells were washed three times with PBS and fresh phenol red free culture media were added to the cells. […]\n(§5) Next it was determined whether scFv-SNAP-IR700 has the ability to induce apoptosis using the Apo-ONE® Homogeneous Caspase-3/7 assay (Promega, Mannheim, Germany). […] The activities of caspase-3 and -7 enzymes were analyzed in cell lysates by measuring the fluorescence signal at 485 nm excitation wavelength and 535 nm emission wavelength using the ELISA plate reader ELx808 (Bio-TEK, Bad Friedrichschall, Germany)."}, "[3]": {"test_system": "EGFR^+ skin carcinoma cell lines (A431, IGR1 and IGR-39)", "assay": "Flow cytometry binding analysis", "set-up": "species or system human", "details": "EGFR+ skin cancer cells; 30 min on ice", "method": "Flow cytometry analysis was performed to determine the binding properties of labeled scFv-SNAP-tag fusion protein against skin cancer cell lines. Approximately 4×10^5 cells each of the EGFR-positive skin cancer cell lines IGR-39, IGR-1 and A431 as well as of the EGFR low expressing cell line A2058 were incubated with 0.5 μg of labeled proteins for 30 min on ice. After washing the cells twice with 1.8 mL of PBS in a conventional cell washer, fluorescence signals were detected using a FACSCalibur® device and CellQuest® software (Becton & Dickinson, Heidelberg, Germany) using a 633 nm laser source."}, "[4]": {"test_system": "EGFR low expressing cell line (A2058)", "assay": "Confocal microscopy binding and internalization", "format": "cell-based, human", "details": "same conditions", "method": "(§6) To further monitor the targeted activity of fusion protein, Opera® High Content Screening System (PerkinElmer, Rodgau, Germany) was used to determine the binding and internalization properties of labeled fusion proteins on skin cancer cells. Cells were prepared as described for flow cytometry analysis. Binding activity was analyzed by incubating the cells with labeled fusion proteins for 30 min on ice, while receptor mediate internalization activities was monitored by incubating the cells with the labeled fusion proteins for 2 h at 37° C."}, "[5]": {"test_system": "EGFR-expressing cell lines (A431, IGR1 and IGR-39)", "assay": "Confocal microscopy binding and internalization", "format": "cell-based, human", "method": "as §6"}, "[6]": {"test_system": "A2058 cells (EGFR low expressing)", "assay": "XTT cell viability assay after light treatment", "format": "cell-based, human", "details": "same protocol with light, up to 400 nM", "method": "as §1\n(§7) In addition to the in vitro imaging specificity, the phototoxic activity of scFv-SNAP-IR700 and free IR700 were also investigated using cell proliferation and cell apoptosis assays as described previously (9). Briefly, 2×10^4 cells were seeded in 96-well plates and incubated overnight at 37° C. […]\nas §3"}, "[7]": {"test_system": "EGFR-expressing skin cancer cell lines (A431, IGR-1, IGR-39)", "assay": "XTT cell viability assay, EGFR-expressing lines together", "format": "cell-based, human", "details": "with light 580-1400 nm; 0-400 nM", "method": "as §1, §7, §3"}, "[8]": {"test_system": "EGFR low expressing cells (A2058)", "assay": "Apo-ONE Caspase-3/7 apoptosis assay", "format": "cell-based, human", "details": "same conditions", "method": "as §2, §4, §5"}, "[9]": {"test_system": "cells expressing EGFR (A431, IGR-1, IGR-39)", "assay": "Apo-ONE Caspase-3/7 apoptosis assay", "format": "cell-based, human", "details": "all cells expressing EGFR; with light", "method": "as §2, §4, §5"}}, "data": [{"molecule": "C[Si](C)(CCC[N+](CCCS(=O)(=O)[O-])(CCCS(=O)(=O)[O-])CCCS(=O)(=O)[O-])O[Si]1(O[Si](C)(C)CCC[N+](CCCS(=O)(=O)[O-])(CCCS(=O)(=O)[O-])CCCS(=O)(=O)[O-])n2c3c4ccccc4c2N=C2N=C(N=c4c5ccccc5c(n41)=NC1=NC(=N3)c3ccccc31)c1cccc(OCCCOC(=O)NCCCCCC(=O)ON3C(=O)CCC3=O)c12.[Na+].[Na+].[Na+].[Na+]", "note": "(stereo not shown) [IR700, IRDye®700DX N-hydroxysuccinimide ester, reference compound]", "values": [{"measurement": "cell viability (XTT), controls", "setting": "[1]", "result": "unaffected"}, {"measurement": "caspase activities, controls", "setting": "[2]", "result": "no significant elevation of caspase activities"}]}, {"molecule": "scFv-425-SNAP-tag: unlabeled fusion protein of anti-EGFR scFv-425 (SEQ ID No. 1) and SNAP-tag (SEQ ID No. 2)", "values": [{"measurement": "cell viability (XTT), controls", "setting": "[1]", "result": "unaffected"}, {"measurement": "caspase activities, controls", "setting": "[2]", "result": "no significant elevation of caspase activities"}]}, {"molecule": "B1", "values": [{"measurement": "labeling of cells (flow cytometry)", "setting": "[3]", "result": "rapid and efficient labeling"}, {"measurement": "binding/internalization signal (confocal)", "setting": "[4]", "result": "no signal was detected"}, {"measurement": "binding, cell membrane staining (confocal)", "setting": "[5]; 30 min incubation at 4° C.", "result": "homogeneous cell membrane staining"}, {"measurement": "internalization (confocal)", "setting": "[5]; max. 2 h of incubation at 37° C.", "result": "exclusively taken up"}]}, {"molecule": "B2", "values": [{"measurement": "cell viability (XTT)", "setting": "[6]", "result": "no significant reduction in cell viability"}, {"measurement": "viability of EGFR+ cells (XTT)", "setting": "[7]", "result": "reduced significantly in a concentration-dependent manner"}, {"measurement": "cell viability (XTT) without light", "setting": "[1]; without any light treatment", "result": "no toxic effects"}, {"measurement": "caspase-3 and caspase-7 activities (apoptosis)", "setting": "[8]", "result": "did not have a negative impact"}, {"measurement": "caspase-3 and caspase-7 activities (apoptosis)", "setting": "[9]", "result": "triggers apoptosis"}]}]}
